{"source": "patent US20230203142A1", "about": "“TREATMENT OF METABOLIC DISORDERS THROUGH THE TARGETING OF A NOVEL CIRCULATING HORMONE COMPLEX” (The President and Fellows of Harvard College, priority 2020, published 2023)", "key": {"FABP4": {"target": "FABP4 (Homo sapiens, UniProt P15090)", "sequence (P15090 whole entry)": "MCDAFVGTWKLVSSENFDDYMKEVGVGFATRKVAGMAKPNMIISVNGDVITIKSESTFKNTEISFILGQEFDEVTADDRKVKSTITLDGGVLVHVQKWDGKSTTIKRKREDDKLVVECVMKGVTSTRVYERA", "assay": "Antibody binding affinity for FABP4", "details": "compared to traditional therapeutic antibodies"}, "NOD mice": {"test_system": "NOD mice", "assay": "a-Ab treatment in NOD model of T1D", "assay_type": "in vivo, mouse", "description": "WT female NOD mice matched for age, weight, blood glucose, plasma insulin, and circulating FABP4 levels were utilized to explore the effect of antibody-mediated FABP4 targeting in the context of T1D, (FIGS. 2D-G). Mice were treated twice weekly with a-Ab, PBS, or a control antibody of the same isotype (c-Ab) starting at 10 weeks of age, when insulitis had already been established. […] Collectively, a-Ab-mediated protection against T1D and improvement of glycemic control in a DIO model of T2D are both associated with improved beta cell mass and function.\nTo investigate the contribution of proliferation to the increase in beta cell mass, NOD mice were treated with BrdU along with a-Ab, c-Ab, or PBS for 5 weeks beginning at 10 weeks of age. […] This difference is likely associated with the pro-proliferative environment of DIO as compared to the NOD model. […] Thus, targeting the FABP4-ADK-NDPK complex with a-Ab preserves beta cell mass and enhances beta cell function to protect against diabetes.\nPancreata were dissected and fixed in 10% zinc buffered formalin for 24-48 hrs before being washed and stored in 70% ethanol. Samples were paraffin embedded, and sectioned in steps 250 μm apart. Immunostaining for insulin, glucagon, BrdU and Cleaved Caspase 3 was performed as described previously (Prentice et al., 2014; Rezania et al., 2014). Images of each section were acquired using Aperio Imagescope at 20× magnification. The beta- or alpha-cell area was calculated by using positive pixel count analysis (Aperio ImageScope). Islet number and size was determined by manually circling insulin positive clusters in the Aperio ImageScope software. Two blinded individuals independently performed manual analysis and insulitis scoring."}, "INS1 cells [1]": {"test_system": "INS1 cells", "assay": "ER stress and cell death markers (Western blot, QPCR)", "assay_type": "cell-based, rat", "details": "combined stimulation with complex and ER stress-inducer Tg", "description": "The purinergic P2Y receptors activate two downstream signaling pathways; phospholipase C (PLC), which promotes the generation of IP3, as well as inhibition of cAMP generation through the activation of G proteins (Sabala et al., 2001; Seo et al., 2016). These pathways directly influence calcium flux, which regulates both insulin secretion and survival. To elucidate how the NDPK-ADK/FABP4 complex influences beta cell function to promote diabetes, the intracellular effects mediated by this complex were examined using western blotting and quantitative PCR. Western blotting and quantitative PCR (QPCR) were performed as previously described (Prentice et al., 2018). […] Protein content was evaluated by BCA (Invitrogen, USA). […]\nER calcium homeostasis is essential for a variety of processes and reduced ER calcium can induce ER stress through the accumulation or inappropriate secretion of misprocessed or misfolded proteins (Engin et al., 2014; Engin et al., 2013). […] Cells were treated for 2 hours with increasing doses of Thapsigargin or 18 hours with increasing doses of cytokines (1=TNFα (Peprotech #315-05-20 ug) […], IFNγ (Peprotech #315-01A-20 ug) 100 ng/ml, IL-1β (R&D Systems #401-ML-005) 5 ng/ml), washed with PBS, and cleaved caspase 3/7 activity was determined using the Promega Caspase-Glo 3/7 Assay System, according to manufacturer's instructions."}, "INS1 cells [2]": {"test_system": "INS1 cells", "assay": "Cytosolic calcium flux, Fura-2 AM imaging", "details": "20 mM glucose", "procedure": "Cells were pre-treated with P2Y1 activator (0.5 nM; MRS2365 Tocris #2157) during the pre-incubation period. Cells were stimulated with ATP (5 μM; Promega #V915A) or ADP (2.5 μM; Promega #V916A) acutely with the addition of LG and HG KRB during the serial stimulation. Cells were treated with 100 ng/ml recombinant human FABP4 (produced in-house), 200 ng/ml recombinant human ADK (Novus Biologicals, product number NBP1-44382 or R&D Systems, product number 8024-AK-025), or 100 ng/ml recombinant human NDPK-A (Acro Biosystems, product number NM1-H5147) where indicated, for the pre-incubation period, as well as during the glucose stimulation.\nBriefly, INS1 cells were plated in imaging disks at 5000 cells/dish and cultured in standard media overnight. Cells were washed with PBS, and incubated in imaging buffer without glucose, with or without calcium containing Fura-2 AM (2 mM; ThermoFisher F1201) for 30 minutes at 37° C. Cells were washed twice with fresh PBS, and placed in lml imaging buffer. Calcium flux was evaluated with the addition of 20 mM glucose, 30 mM KCl, or 1 μM Thapsigargin. Extracellular calcium was added at 1.5 mM. Calcium flux measurements were performed using an epifluorescence system coupled to a Ti-S/L100 inverted microscope L100 with fluorescent light source (X-Cite 120LED System) equipped with Lambda DG-4 Plus for UV ratiometric probes. Excitations at 340 nm and 380 nm were used and an emission of 510 nm. Analysis was performed using ImageJ software. Calcium flux was measured from 50 cells per coverslip."}, "[3]": {"details": "among the mice that developed diabetes"}}}
{"molecule": "a-Ab: monoclonal antibody previously reported as CA33; heavy chain SEQ ID NO 446, light chain SEQ ID NO 447; binds FABP4 and NDPK (antibody, listed as Homo sapiens) heavy: QSVEESGGRLVTPGTPLTLTCTVSGFSLSTYYMSWVRQAPGKGLEWIGIIYPSGSTYCASWAKGRFTISKASTTVDLKITSPTTEDTATYFCARPDNDGTSGYLSGFGLWGQGLVTVSSAKTTPPSVYPLAPGSAAQTNSMVTLGCLVKGYFPEPVTVTWNSGSLSSGVHTFPAVLQSDLYTLSSSVTVPSSTWPSETVTCNVAHPASSTKVDKKIVPRDC light: DVVMTQTPASVSEPVGGTVTIKCGASEDISRYLVWYQQKPGQPPKRLIYKASTLASGVPSRFKGSGSGTDFTLTISDLECDDAATYYCQCTYGTYAGSFFYSFGGGTEVVVERTDAAPTVSIFPPSSEQLTSGGASVVCFLNNFYPKDINVKWKIDGSERQNGVLNSWTDQDSKDCTYSMSSTLTLTKDEYERHNSYTCEATHKTSTSPIVKSFNRNEC", "values": [{"measurement": "binding affinity for recombinant FABP4", "setting": "FABP4", "result": "relatively weak binding affinity"}, {"measurement": "overall number of BrdU positive beta cells", "setting": "NOD mice; NOD mice, 5 weeks, compared to c-Ab", "result": "no significant difference"}, {"measurement": "islet number and beta cell mass", "setting": "NOD mice; NOD mice, compared to c-Ab-treated controls", "result": "significant increase"}, {"measurement": "CC3 positive beta cells", "setting": "NOD mice; NOD model, vs controls", "result": "profound reduction"}, {"measurement": "blood glucose", "setting": "NOD mice; [3]", "result": "significantly reduced"}, {"measurement": "plasma insulin levels", "setting": "NOD mice; [3]", "result": "higher"}, {"measurement": "body weight, plasma insulin, or blood glucose levels", "setting": "NOD mice; among the non-diabetic mice, throughout the study", "result": "no significant differences"}, {"measurement": "development of T1D", "setting": "NOD mice; female NOD mice, twice weekly from 10 weeks of age", "result": "significantly protected"}, {"measurement": "GSIS both in vivo and ex vivo", "setting": "NOD mice; non-diabetic NOD mice", "result": "improved"}, {"measurement": "glycemic control during GTT", "setting": "NOD mice; non-diabetic NOD mice", "result": "improved"}, {"measurement": "glucagon positive area", "setting": "NOD mice; pancreatic sections, NOD mice", "result": "significant reduction"}, {"measurement": "ER stress markers Chop and Bip (Grp78)", "setting": "INS1 cells [1]", "result": "rescued"}, {"measurement": "extracellular calcium influx in response to glucose", "setting": "INS1 cells [2]", "result": "rescue"}]}
